Two substances from PMC5575113 can be followed below.

In one assay the target is GroES^7I25D1,2 (E. coli). As to the kind of experiment: MST; cochaperonin labelled with DyLight 650, unlabelled GroEL or GroEL^SR titrated (serial dilution of 15 samples), 30 min incubation; 50 mM TrisCl pH 7.5, 100 mM KCl, 10 mM MgCl2, 1 mM EDTA, 2 mM ADP, 0.5 mg/mL BSA; Monolith NT115, 80% LED, 40% IR-laser.
Assay [1] addresses GroES^7I25A1,2 (E. coli). Described as above.
The target of assay [2] is GroES^7 (E. coli). The description is as above.
The next assay concerns the target GroES^7I25D1 (E. coli). The description is as above.
Assay [3] deals with GroES^7I25A1,4 (E. coli). The description is as above.
In another assay the target is GroES^7I25D1,4 (E. coli). The assay is described as above.
The next assay addresses GroES^7I25D1,3 (E. coli). The description is as above.
The target in assay [4] is GroES^7I25A1,3 (E. coli). The assay is described as above.
The target of assay [5] is GroES^7I25A1,2 (E. coli).
Assay [6] addresses GroES^7I25A1,4 (E. coli).
The target of assay [7] is GroES^7I25A_(1,4,6) (E. coli).
The target in assay [8] is GroES^7I25A_(1,4,7) (E. coli).
For assay [9], the target named is GroES^7I25A1,3 (E. coli).
Assay [10] addresses GroES^7I25A1 (E. coli).
The target of assay [11] is GroES^7I25A1,2 (E. coli). As to the kind of experiment: MST; cochaperonin labelled with DyLight 650; unlabelled GroEL or GroEL^SR in a serial dilution of 15 samples; 50 mM TrisCl pH 7.5, 100 mM KCl, 10 mM MgCl2, 1 mM EDTA, 2 mM ADP, 0.5 mg/mL BSA; 30 min incubation.
The target in assay [12] is GroES^7 (E. coli). The description is as above.
Assay [13] has as its target GroES^7I25A1,4 (E. coli). The assay is described as above.
The target of assay [14] is GroES^7I25A1,3 (E. coli). The description is as above.
Assay [15] has as its target GroES^7I25A1 (E. coli). The description is as above.
In assay [16] the target is GroES^7I25D1,4,7 (E. coli). As to the kind of experiment: MST; cochaperonin labelled with DyLight 650, unlabelled GroEL or GroEL^SR titrated (serial dilution of 15 samples), 30 min incubation; 50 mM TrisCl pH 7.5, 100 mM KCl, 10 mM MgCl2, 1 mM EDTA, 2 mM ADP, 0.5 mg/mL BSA; Monolith NT115, 80% LED, 40% IR-laser.
The target of assay [17] is GroES^7I25A1 (E. coli). This is another data set of the same source.
Assay [18] addresses GroES^7I25A1 (E. coli). The source holds these as a separate data set.
A further assay has as its target GroESI25A (E. coli) (UniProt P0A6F9). In words: MST; cochaperonin labelled with DyLight 650; unlabelled GroEL or GroEL^SR in a serial dilution of 15 samples; 50 mM TrisCl pH 7.5, 100 mM KCl, 10 mM MgCl2, 1 mM EDTA, 2 mM ADP, 0.5 mg/mL BSA; 30 min incubation.
For another assay, the target named is GroESL27A (E. coli) (UniProt P0A6F9). Described as above.
In assay [19] the target is GroES^7I25A_(1,4,6) (E. coli). Described as above.
In assay [20] the target is GroES^7I25A_(1,4,7) (E. coli). Described as above.

Sequence of GroEL (P0A6F5 whole entry): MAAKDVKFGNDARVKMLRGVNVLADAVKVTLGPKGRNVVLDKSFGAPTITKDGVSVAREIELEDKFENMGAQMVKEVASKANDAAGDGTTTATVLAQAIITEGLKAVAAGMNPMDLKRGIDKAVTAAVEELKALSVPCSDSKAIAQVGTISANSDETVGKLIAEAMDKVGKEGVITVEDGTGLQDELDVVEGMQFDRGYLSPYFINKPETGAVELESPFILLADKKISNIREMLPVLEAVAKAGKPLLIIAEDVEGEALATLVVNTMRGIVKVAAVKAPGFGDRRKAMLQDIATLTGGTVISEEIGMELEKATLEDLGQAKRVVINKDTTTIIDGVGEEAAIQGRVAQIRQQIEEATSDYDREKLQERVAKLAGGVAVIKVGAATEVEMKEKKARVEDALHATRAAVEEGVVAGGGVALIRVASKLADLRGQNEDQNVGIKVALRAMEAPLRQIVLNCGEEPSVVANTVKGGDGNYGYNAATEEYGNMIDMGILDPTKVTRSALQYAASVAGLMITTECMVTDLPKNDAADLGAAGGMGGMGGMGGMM

As for “GroEL^SR (GroEL R452A/E461A/S463A/V464A) (from UniProt P0A6F5 1-548) (natural protein)”, the Kd (as a rule, the constant that tells how readily two partners part at equilibrium) with GroES^7I25D1,2 (E. coli) is 38.7 nM; with GroES^7I25A1,2 (E. coli) [1] it was 35 nM; in the assay with GroES^7 (E. coli) [2], 4.54 nM; with GroES^7I25D1 (E. coli), 25.6 nM; with GroES^7I25A1,4 (E. coli) [3], 51.3 nM; with GroES^7I25D1,4 (E. coli), 73.1 nM. Further, the Kd was 71.9 nM in the assay with GroES^7I25D1,3 (E. coli), 39.7 nM with GroES^7I25A1,3 (E. coli) [4], 3.7 nM with GroES^7 (E. coli) [12] and 8.5 nM in the assay with GroES^7I25A1 (E. coli) [15]. The inhibition of the ATPase of GroEL^SR is 50% in the assay with GroES^7I25A1,2 (E. coli) [5]; 50% with GroES^7I25A1,4 (E. coli) [6]; 20% in assay [7]; 20% in assay [8]; 50% with GroES^7I25A1,3 (E. coli) [9]; 80% in the assay with GroES^7I25A1 (E. coli) [10]. The fold reduction of affinity against GroES^7 with GroES^7I25A1,2 (E. coli) [11], with GroES^7I25A1,4 (E. coli) [13] and with GroES^7I25A1,3 (E. coli) [14] was more than 10 fold in each case.

Consider “GroEL (from UniProt P0A6F5 1-548) (natural protein)”, for which the Kd with GroES^7I25D1,4 (E. coli) was 9.58 nM; in [16], 40 nM; with GroES^7I25D1,3 (E. coli), 13.3 nM; in the assay with GroESI25A (E. coli), more than 5000 nM; in the assay with GroESL27A (E. coli), more than 5000 nM. Further, in the assay with GroES^7I25A1 (E. coli) [17], the ATPase activity of GroEL left in the presence of the variant was determined as 53.2%. Also, the yield of GroEL-mediated MDH folding with GroES^7I25A1 (E. coli) [18] worked out at 72%. The fold reduction of affinity against GroES^7 was 2 fold with GroES^7I25A1,2 (E. coli) [11]; 2 fold with GroES^7I25A1,4 (E. coli) [13]; more than 25 fold in assay [19]; more than 25 fold in [20]; 2 fold in the assay with GroES^7I25A1,3 (E. coli) [14].
